Results reported in patent US20240124590A1 (ULTRAHUMAN EIGHT, published 2024).

Columns and labels:
[1] = target: T1, recombinant ectodomain of rhesus VEGFR2 (rhesus); experiment: direct ELISA
T1 construct: whole entry named
T1 chain: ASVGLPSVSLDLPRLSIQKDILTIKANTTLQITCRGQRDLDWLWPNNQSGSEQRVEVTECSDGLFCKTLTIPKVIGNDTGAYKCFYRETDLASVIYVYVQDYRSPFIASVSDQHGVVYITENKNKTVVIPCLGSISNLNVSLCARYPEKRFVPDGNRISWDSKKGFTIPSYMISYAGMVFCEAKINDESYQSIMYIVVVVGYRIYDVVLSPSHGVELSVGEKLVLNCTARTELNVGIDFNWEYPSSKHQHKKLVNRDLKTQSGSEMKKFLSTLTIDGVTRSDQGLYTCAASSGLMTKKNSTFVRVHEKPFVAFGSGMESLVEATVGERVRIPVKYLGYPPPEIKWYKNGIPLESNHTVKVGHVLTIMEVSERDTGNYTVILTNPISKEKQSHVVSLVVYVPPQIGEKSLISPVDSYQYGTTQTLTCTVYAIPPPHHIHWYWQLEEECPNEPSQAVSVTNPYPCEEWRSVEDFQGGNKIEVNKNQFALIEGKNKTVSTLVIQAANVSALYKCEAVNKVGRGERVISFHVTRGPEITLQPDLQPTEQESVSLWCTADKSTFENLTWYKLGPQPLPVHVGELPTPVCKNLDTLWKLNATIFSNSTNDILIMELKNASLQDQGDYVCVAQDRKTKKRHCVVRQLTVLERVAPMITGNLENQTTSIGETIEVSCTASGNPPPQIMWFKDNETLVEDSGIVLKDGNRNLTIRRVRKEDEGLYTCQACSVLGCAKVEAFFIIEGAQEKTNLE

[2] = target: T2, recombinant ectodomain of human VEGFR2 (human, UniProt P35968 20-764); experiment: direct ELISA
T2 construct: whole entry named

[3] = target: T3, human PD1 protein (construct not stated) (human, UniProt Q15116 25-170, limits assumed); experiment: direct ELISA
T3 construct: Coated protein of the off-target ELISA; whole entry named
T3 sequence (Q15116 25-170 limits assumed): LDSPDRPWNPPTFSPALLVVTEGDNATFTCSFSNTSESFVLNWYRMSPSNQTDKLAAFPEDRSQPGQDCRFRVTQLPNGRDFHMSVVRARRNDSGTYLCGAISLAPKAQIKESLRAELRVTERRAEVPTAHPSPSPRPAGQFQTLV

[4] = target: T4, cyno PD1 protein (construct not stated) (cynomolgus monkey, UniProt Q15116 25-170 (human entry), limits assumed); experiment: direct ELISA
T4 construct: may be two constructs; also called cyno PD1 in the Alphascreen screen
T4 chain: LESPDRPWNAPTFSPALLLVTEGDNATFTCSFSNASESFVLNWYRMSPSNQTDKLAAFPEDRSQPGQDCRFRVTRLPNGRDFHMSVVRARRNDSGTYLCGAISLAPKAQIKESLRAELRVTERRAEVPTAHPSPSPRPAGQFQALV

[5] = target: T5, human PD1 expressed on cells (human, UniProt Q15116 25-288); experiment: cell microarray re-array, transfected HEK293
T5 construct: also called human PD1+ CHO cells; PD1-transfected HEK293 cells
T5 sequence (Q15116 25-288 limits assumed): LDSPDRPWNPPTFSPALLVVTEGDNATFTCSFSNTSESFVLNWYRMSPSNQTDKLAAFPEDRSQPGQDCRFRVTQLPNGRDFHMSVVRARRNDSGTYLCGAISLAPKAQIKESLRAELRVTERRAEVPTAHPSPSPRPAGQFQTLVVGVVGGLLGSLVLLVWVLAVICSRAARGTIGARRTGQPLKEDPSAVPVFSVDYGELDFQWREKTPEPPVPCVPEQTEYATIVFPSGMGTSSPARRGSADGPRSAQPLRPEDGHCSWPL
Procedure: (§1) Antibody binding was detected using AF647 fluorescent secondary anti-human IgG1 antibody. Primary hits (duplicate spots) were identified by analysing fluorescence (AF647 and ZsGreen1) on ImageQuant. Vectors encoding all hits were sequenced to confirm their correct identities. […] Slides were analysed as above. Flow cytometry confirmation screen: Expression vectors encoding ZsGreen1 only, or ZsGreen1 and PD1, FZDS, KDR or ULBP2, were transfected into human HEK293 cells. Each live transfectant was incubated with […] of each of the test antibodies and the Isotype control antibody. Cells were washed, and incubated with the same AF647 anti-human IgG Fc detection antibody as used in the cell microarray screens. Cells were again washed, and analysed by flow cytometry using an Accuri flow cytometer (BD). A 7AAD live/dead dye was used to exclude dead cells, and ZsGreen1-positive cells (i.e. transfected cells) were selected for analyses.

[6] = target: T6, human ULBP2 (UL16 binding protein 2) on transfected HEK293 cells (human, UniProt Q9BZM5 26-217); experiment: cell microarray re-array, transfected HEK293
T6 sequence: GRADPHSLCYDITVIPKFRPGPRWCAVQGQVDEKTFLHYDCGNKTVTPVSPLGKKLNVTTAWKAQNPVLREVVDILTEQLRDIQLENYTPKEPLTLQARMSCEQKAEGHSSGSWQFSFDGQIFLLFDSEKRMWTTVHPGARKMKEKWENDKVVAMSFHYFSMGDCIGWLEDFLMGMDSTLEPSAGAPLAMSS
Procedure: as §1

[7] = target: T7, human FZD5 (frizzled class receptor 5) on transfected HEK293 cells (human, UniProt Q13467 27-585); experiment: cell microarray re-array, transfected HEK293
T7 construct: also called FZDS; FZ5
T7 sequence (Q13467 27-585 limits assumed): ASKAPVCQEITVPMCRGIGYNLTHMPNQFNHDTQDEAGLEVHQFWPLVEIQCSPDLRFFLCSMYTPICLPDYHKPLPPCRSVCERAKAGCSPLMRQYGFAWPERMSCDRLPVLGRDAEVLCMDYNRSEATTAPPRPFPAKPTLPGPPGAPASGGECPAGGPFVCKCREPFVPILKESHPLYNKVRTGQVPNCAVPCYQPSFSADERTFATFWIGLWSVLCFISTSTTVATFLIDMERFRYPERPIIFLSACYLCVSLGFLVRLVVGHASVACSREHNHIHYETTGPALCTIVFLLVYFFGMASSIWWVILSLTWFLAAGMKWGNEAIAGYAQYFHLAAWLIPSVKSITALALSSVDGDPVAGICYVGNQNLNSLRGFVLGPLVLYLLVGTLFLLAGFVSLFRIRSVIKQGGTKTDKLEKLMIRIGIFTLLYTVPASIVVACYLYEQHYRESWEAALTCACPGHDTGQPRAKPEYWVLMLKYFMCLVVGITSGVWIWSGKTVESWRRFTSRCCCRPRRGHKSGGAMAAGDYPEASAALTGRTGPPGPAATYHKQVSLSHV
Procedure: as §1

[8] = target: T8, human KDR (VEGFR2) on cells (human, UniProt P35968 20-1356); experiment: cell microarray re-array, transfected HEK293
T8 construct: Transfected HEK293 cells (arrays, flow cytometry) and human VEGFR2 reporter cells
Procedure: as §1

[9] = target: T9, human monomeric VEGFR2-his protein (human, UniProt P35968 20-764); experiment: SPR (Biacore), IgG captured, VEGFR2-his analyte
T9 construct: Soluble analyte; whole entry named; also called human VEGFR2-his; not shown: his tag
Procedure: (§2) Affinity (KD) of purified IgGs was determined via SPR with antigen in-solution on a Biacore 3000 (GE). A mouse anti-human antibody (CH1 specific) was immobilized on a CM5 Sensor Chip to a level of 2000 RU in acetate buffer at pH 4.5 using amine coupling following the Wizard instructions for two channels. One channel was used for background signal correction. The standard running buffer HBS-EP pH 7.4 was used. Regeneration was performed with a single injection of 10 μl of 10 mM Glycine at pH 1.5 at 20 μl/minute. IgG samples were injected for 2 minutes at 50 nM at 30 μl/min followed by and off-rate of 60 seconds. […] The obtained sensorgrams were analysed using the Biacore 3000 evaluation (BIAevaluation) software. The KD was calculated by simultaneous fitting of the association and dissociation phases to a 1:1 Langmuir binding model.

[10] = target: T10, rhesus monomeric VEGFR2-his protein (rhesus); experiment: SPR (Biacore), IgG captured, VEGFR2-his analyte
T10 construct: Soluble analyte; whole entry named; also called rhesus VEGFR2-his; not shown: his tag
T10 chain: T1 chain
Procedure: as §2

Measured: binding result

B1: mVH/mVL Mab005-IgG1 (antibody, V domains shown)
VH: EVMLVESGGGLVKPGGSLKLSCAASGFTFSSYMMSWVRQTPEKRLEWVATISGGGANTYYPDSVKGRFTISRDNAKNTLYLQMSSLRSEDTALYYCARQLYYFDYWGQGTTLTVSS
VL: DIQMTQSPASQSASLGEGVTITCLASQTIGTWLTWYQQKPGKSPQLLIYTATSLADGVPSRFSGSGSGTKFSFKISSLQAEDFVTYYCQQVYSIPWTFGGGTKLEIK
notes: Murine PD1-mVH/PD1-mVL on human IgG1null + Ckappa; also called original murine hybridoma v-domains
binds: [1] | [2] | [3] | [4] | [5] | [6] | [7] | [8] | [9] | [10]
